From article PMC6648347, “Effective mismatch repair depends on timely control of PCNA retention on DNA by the Elg1 complex” (Nucleic Acids Research, 2019)
Residue numbers refer to the chain shown, from its start. Names and notes keep the numbering of the source.

B1: PCNA-D17K (recombinant, crystallised) (natural protein, S. cerevisiae)
chain: MLEAKFEEASLFKRIIKGFKDCVQLVNFQCKEDGIIAQAVDDSRVLLVSLEIGVEAFQEYRCDHPVTLGMDLTSLSKILRCGNNTDTLTLIADNTPDSIILLFEDTKKDRIAEYSLKLMDIDADFLKIEELQYDSTLSLPSSEFSKIVRDLSQLSDSINIMITKETIKFVADGDIGSGSVIIKPFVDMEHPETSIKLEMDQPVDLTFGAKYLLDIIKGSSLSDRVGIRLSSEAPALFQFDLKSGFLQFFLAPKFNDEE
notes: PCNA (POL30), S. cerevisiae, with D17K; modified pET-28 vector with an N-terminal 6-His tag and a PreScission Protease cleavage site; also called PCNA mutant D17K
B2: PCNA-D21K (recombinant, crystallised) (natural protein, S. cerevisiae)
chain: B1 chain with K17D, D21K
notes: PCNA (POL30), S. cerevisiae, with D21K; modified pET-28 vector with an N-terminal 6-His tag and a PreScission Protease cleavage site; also called PCNA mutant D21K

Target: the molecule itself
Test: crystal structure; hanging drop, room temperature; 50 mM sodium citrate pH 5.3, 1.7 M (NH4)2SO4 for PCNA-D17K; 50 mM sodium citrate pH 5.6, 2 M (NH4)2SO4 for PCNA-D21K; molecular replacement with wild-type PCNA (PDB 4YHR)

Protein	binding result
B1	binds
B2	binds
